Measured values reported in patent publication US20260217797A1 (Takeda / Millennium, published 2026).
Changes are numbered by the printed parent chain.

T1: MERS-CoV [change] (MERS-CoV, UniProt K9N5Q8 18-725)
T1 sequence: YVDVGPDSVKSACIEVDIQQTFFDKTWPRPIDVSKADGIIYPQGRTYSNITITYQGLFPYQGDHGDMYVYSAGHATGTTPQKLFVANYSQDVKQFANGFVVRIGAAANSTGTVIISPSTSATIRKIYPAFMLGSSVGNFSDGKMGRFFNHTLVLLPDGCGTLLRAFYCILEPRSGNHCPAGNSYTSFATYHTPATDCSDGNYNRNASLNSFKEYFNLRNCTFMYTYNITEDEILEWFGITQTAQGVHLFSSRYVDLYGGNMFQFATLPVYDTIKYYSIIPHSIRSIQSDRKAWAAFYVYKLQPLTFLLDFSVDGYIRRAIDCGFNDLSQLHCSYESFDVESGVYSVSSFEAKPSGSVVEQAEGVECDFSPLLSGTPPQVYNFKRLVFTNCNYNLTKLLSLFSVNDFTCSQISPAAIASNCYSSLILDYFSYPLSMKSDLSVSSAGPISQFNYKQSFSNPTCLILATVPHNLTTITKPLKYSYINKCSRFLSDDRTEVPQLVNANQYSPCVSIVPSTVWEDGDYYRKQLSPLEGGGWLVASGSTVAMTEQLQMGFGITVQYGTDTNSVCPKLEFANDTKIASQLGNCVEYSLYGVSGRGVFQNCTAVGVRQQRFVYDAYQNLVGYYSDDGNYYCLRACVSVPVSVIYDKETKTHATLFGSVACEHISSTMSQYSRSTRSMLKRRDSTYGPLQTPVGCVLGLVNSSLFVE

B1: A-16 (antibody, V domains shown)
VH: QVQLVESGGGLVQPGRSLRLSCAASGFTFDDYAMHWVRQAPGKGLEWVSGISWNSGTIGYADSVKGRFIISRDNAKNSLYLQMNSLRGEDMALYYCGKDRKREDPSLGGMDVWGQGTTVTVSS
VL: SYELTQPPSVSVAPGQTARITCGGNNIGSKSVHWYQQKPGQAPVLVVYDDTDRPSGIPERFSGSNSGNTATLTISRVEAGDEADYYCQVWDSSSDHYVFGTGTKLTVL
B2: A-22 (antibody, V domains shown)
VH: not shown
VL: EIVLTQSPGTLSLSPGERATLSCRASQTVRSDLAWYQQKPGQAPRLLIYGASTRATDISDRFSGSGSGTEFTLTISSLQSEDFAVYYCQQYYEWPPHSDSFGGGTKVEIK
B3: A-9 (antibody, V domains shown)
VH: EVQLVESGGGLVKPGRSLRLSCAASGFTFADYAMSWFRQAPGKGLEWVGFIRSKPYGGTTEYAASVKGRFTISRDDSKSIAYLQMNSLKTEDTAVYYCSRDPWYCSGGDCYAVTGSWFDPWGQGTLVTVSS
VL: DIVLTQSPSSLSASVGDRVTITCQASQDIKKYLNWYQQKPGKAPKLLIYDVSNLETGVPSRFSGSGSGTDFTFTISSLQPEDVAIYYCQQYDNLPQTFGQGTKVDIK
B4: A-6 (antibody, V domains shown)
VH: QVQLVQSGGGVVQPGRSLRLSCAASGFTFSNFAMHWVRQAPGKGLEWVAVILYDGINKYYADSVKGRFTISRGNSKNTLSLQMNSLRAEDTAVYYCARAQNYYDRSGTLQLDAFDIWGQGTMVTVSS
VL: DIVMTQSPSSLSASVGDRVTITCRASQGIRNDLGWYQQKPGKAPKLLIYAASSLQSGVPSRFSGSGSGTDFTLTISSLQPEDFATYYCLQDYNYPLTFGGGTKVEIK
B5: A-18 (antibody, V domains shown)
VH: EVQLLESGGGLVQPGGSLRLSCAASGFTFSRYWMHWVRQAPGKGLVWVSRINSDGSSTTYADSVKGRFTISRDNAKNTLYLQMNSLRAEDTAVYYCARELYYYDSRGAEEGEGWFDPWGQGTLVTVSS
VL: QSVLTQPPSVSGAPGQRVTISCTGISSNIGAGYDVHWYQQLPGTAPKLLIYGNSNRPSGVPDRFSASKSGTSAPLAITGLQAEDEADYYCQSSDRSLSGSVFGTGTKLTVL
B6: A-24.1 Fab (Fab, V domains shown)
VH: B3 VH with A33T, K54E
VL: B3 VL with V3Q, L4M, D105E
B7: A-24 Fab (Fab, V domains shown)
VH: B3 VH
VL: B3 VL with V3Q, L4M, D105E
B8: A-24.3 Fab (Fab, V domains shown)
VH: B3 VH with A33T, K54E
VL: B3 VL with V3Q, L4M, Q27R, N93Q, D105E, K107E
B9: A-19 (antibody, V domains shown)
VH: QVQLVQSGAEVKKPGESLKISCKGSGYSFTSYWIAWVRQMPGKGLEWMGIIYPGDSDTSYSPSFQGQVTISADKSISTAYLQWSSLKASDTAMYYCARGPNKYNWFDTWGQGTLVTVSS
VL: not shown

Molecular target: T2, SARS-CoV-2 wild type spike protein (on reporter virus particles) (SARS-CoV-2, UniProt P0DTC2 14-1273)
Assay: cell-based or functional assay

Going from B1 to B2, the “PsV neutralization IC50” value rises from 0.057 µg/mL to 0.749 µg/mL (13-fold).

Going from B3 to B4, the “PsV neutralization IC50” value rises from 0.011 µg/mL to 0.173 µg/mL (16-fold).

In the case of B5, the “PsV neutralization IC50” value is reported as 0.303 µg/mL.

Compared with B1, B2 is 8.9-fold higher in “PsV neutralization IC90” value: 0.399 µg/mL for the first, 3.55 µg/mL for the second.

First: B3
Second: B4
The “PsV neutralization IC90” value of the first is 12-fold lower: 0.164 µg/mL for the first, 2.03 µg/mL for the second.

In the case of B5, the “PsV neutralization IC90” value is reported as 1.82 µg/mL.

Molecular target: T2, SARS-CoV-2 wild type spike protein (on …)
Assay: cell-based or functional assay
Remark: another data set of the same source

Going from B1 to B2, the “SARS2 IC50” value falls from 0.61 nM to 0.06 nM (10-fold).

B3 and B4 are within 1.5-fold of each other in “SARS2 IC50” value: 0.03 nM for the first, 0.023 nM for the second.

B5 was tested, and the “SARS2 IC50” value was 5.9 nM.

Molecular target: T2, SARS-CoV-2 wild type spike protein (on …)
Assay: cell-based or functional assay
Remark: another data set of the same source

With B2 the “SARS2 PsV IC50” value was 5 nM.

Molecular target: T3, SARS-CoV-2 Spike S1-His (SARS-CoV-2, UniProt P0DTC2 16-685)
Assay: Octet BLI, Fab, monovalent

First: B6
Second: B7
The Kd of the first is 5.5-fold lower: 0.539 nM for the first, 2.97 nM for the second. The first binds more tightly here.

With B8 the Kd was 0.244 nM.

Molecular target: T2, SARS-CoV-2 wild type spike protein (on …)
Assay: cell-based or functional assay
Remark: another data set of the same source

For B2, the “WT PsV IC50” value was 28.8 nM.

Molecular target: SARS-CoV-2 S Trimer (SARS-CoV-2, UniProt P0DTC2 16-1213)
Assay: Octet BLI, IgG, avid

B1 and B9 are within 1.5-fold of each other in Kd: 1.15 nM for the first, 0.987 nM for the second.

B3 and B4 are within 1.5-fold of each other in Kd: 1 nM for the first, 1.35 nM for the second.

In the case of B5, the Kd is reported as 1.69 nM.

Molecular target: T1, MERS-CoV [change]
Assay: Octet BLI, IgG, monovalent

B1: no binding.
B9: no binding.
B3: no binding.
B4: no binding.
B5: no binding.

Molecular target: T4, SARS-CoV1 Spike [change] (SARS-CoV-1, UniProt P59594 14-667)
Assay: Octet BLI, IgG, monovalent

B1: no binding.
B9: no binding.
B3: no binding.

Compared with B4, B5 is 2.3-fold lower in Kd: 17.2 nM for the first, 7.43 nM for the second.

Molecular target: T3, SARS-CoV-2 Spike S1-His
Assay: Octet BLI, IgG, monovalent

Going from B1 to B9, the Kd falls from 4.85 nM to 1.15 nM (4.2-fold).

Going from B3 to B4, the Kd falls from 5.89 nM to 3.71 nM (1.6-fold).

Binder B5 has a Kd of 1.09 nM.

Molecular target: T4, SARS-CoV1 Spike [change]
Assay: Octet BLI, IgG, monovalent
Remark: another data set of the same source

For B2, the Kd was 4.51 nM.

Molecular target: T3, SARS-CoV-2 Spike S1-His
Assay: Octet BLI, IgG, monovalent
Remark: another data set of the same source

In the case of B2, the Kd is reported as 0.244 nM.

Molecular target: T2, SARS-CoV-2 wild type spike protein (on …)
Assay: cell-based or functional assay
Remark: another data set of the same source

Going from B1 to B9, the “PSV IC50” value rises from 0.186 µg/mL to 5.12 µg/mL (28-fold).

B4 was tested, and the “PSV IC50” value was 0.878 µg/mL.

Molecular target: T2, SARS-CoV-2 wild type spike protein (on …)
Assay: cell-based or functional assay
Remark: another data set of the same source

First: B1
Second: B3
The “PsV IC50, Test 1” value of the first is 9.3-fold higher: 0.28 nM for the first, 0.03 nM for the second.

B4 and B5 are within 1.5-fold of each other in “PsV IC50, Test 1” value: 0.12 nM for the first, 0.14 nM for the second.

First: B1
Second: B3
The “PsV IC50, Test 2” value of the first is 14-fold higher: 0.54 nM for the first, 0.04 nM for the second.

B4 and B5 are within 1.5-fold of each other in “PsV IC50, Test 2” value: 2.45 nM for the first, 2.78 nM for the second.

Molecular target: Bat coronavirus WIV16 spike protein (Bat coronavirus WIV16)
Assay: cell-based or functional assay

Going from B4 to B5, the “PsV neutralization IC50” value falls from 0.074 µg/mL to 0.045 µg/mL (1.6-fold).

Compared with B4, B5 is 50-fold lower in “PsV neutralization IC90” value: 16.3 µg/mL for the first, 0.324 µg/mL for the second.

Molecular target: T2, SARS-CoV-2 wild type spike protein (on …)
Assay: cell-based or functional assay
Remark: another data set of the same source

Compared with B4, B5 is 5.1-fold higher in “PsV neutralization IC50” value: 0.015 µg/mL for the first, 0.076 µg/mL for the second.

First: B4
Second: B5
The “PsV neutralization IC90” value of the first is 16-fold lower: 0.085 µg/mL for the first, 1.38 µg/mL for the second.

Molecular target: SARS-CoV-1 spike protein (SARS-CoV-1, UniProt P59594 14-1255)
Assay: cell-based or functional assay

Compared with B4, B5 is 23-fold lower in “PsV neutralization IC50” value: 1.01 µg/mL for the first, 0.043 µg/mL for the second.

In the case of B5, the “PsV neutralization IC90” value is reported as 0.046 µg/mL.

Molecular target: T2, SARS-CoV-2 wild type spike protein (on …)
Assay: cell-based or functional assay
Remark: another data set of the same source

First: B1
Second: B9
The “PsV Neut Assay IC50” value of the first is 28-fold lower: 1.24 nM for the first, 34.1 nM for the second.

Compared with B3, B4 is 28-fold higher in “PsV Neut Assay IC50” value: 0.208 nM for the first, 5.85 nM for the second.

For B5, the “PsV Neut Assay IC50” value was 9.88 nM.

Molecular target: SARS-CoV-2 WT RBD (SARS-CoV-2, UniProt P0DTC2 319-541)
Assay: Octet BLI single point, monovalent

First: B1
Second: B2
The Kd of the first is 6.4-fold higher: 2.09 nM for the first, 0.325 nM for the second.

First: B4
Second: B5
The Kd of the first is 2.2-fold higher: 1.18 nM for the first, 0.527 nM for the second.
